# In PMC11449375:
# What was measured:
# [1] = target: AMC008 SOSIP.v9 (HIV-1 clade B, AMC008); experiment: native gel or EMSA; Blue Native-PAGE of the purified SOSIP.v9 proteins, 3-12% Bis-Tris NuPAGE gel, 2 ug protein, Colloidal blue stain
# [2] = target: AMC008 SOSIP.v9 (HIV-1 clade B, AMC008); experiment: negative-stain EM; purified SOSIPs incubated with Adjuplex, on carbon-covered copper grids, 2% uranyl formate; 2D class averages
# [3] = target: AMC009 SOSIP.v9 (HIV-1 clade B, AMC009); experiment: native gel or EMSA; Blue Native-PAGE of the purified SOSIP.v9 proteins, 3-12% Bis-Tris NuPAGE gel, 2 ug protein, Colloidal blue stain
# [4] = target: AMC009 SOSIP.v9 (HIV-1 clade B, AMC009); experiment: negative-stain EM; purified SOSIPs incubated with Adjuplex, on carbon-covered copper grids, 2% uranyl formate; 2D class averages
# [5] = target: AMC011 SOSIP.v9 (HIV-1 clade B, AMC011); experiment: native gel or EMSA; Blue Native-PAGE of the purified SOSIP.v9 proteins, 3-12% Bis-Tris NuPAGE gel, 2 ug protein, Colloidal blue stain
# [6] = target: AMC011 SOSIP.v9 (HIV-1 clade B, AMC011); experiment: negative-stain EM; purified SOSIPs incubated with Adjuplex, on carbon-covered copper grids, 2% uranyl formate; 2D class averages
# [7] = target: AMC016 SOSIP.v9 (HIV-1 clade B, AMC016); experiment: native gel or EMSA; Blue Native-PAGE of the purified SOSIP.v9 proteins, 3-12% Bis-Tris NuPAGE gel, 2 ug protein, Colloidal blue stain
# [8] = target: AMC016 SOSIP.v9 (HIV-1 clade B, AMC016); experiment: negative-stain EM; purified SOSIPs incubated with Adjuplex, on carbon-covered copper grids, 2% uranyl formate; 2D class averages
# [9] = target: TRO.11 SOSIP.v9 (HIV-1 clade B, TRO.11); experiment: native gel or EMSA; Blue Native-PAGE of the purified SOSIP.v9 proteins, 3-12% Bis-Tris NuPAGE gel, 2 ug protein, Colloidal blue stain
# [10] = target: TRO.11 SOSIP.v9 (HIV-1 clade B, TRO.11); experiment: negative-stain EM; purified SOSIPs incubated with Adjuplex, on carbon-covered copper grids, 2% uranyl formate; 2D class averages
substance,measurement,setting,value
AMC008 SOSIP.v9 (complex),stoichiometry N,[1],3
same,stoichiometry N,[2],3
AMC009 SOSIP.v9 (complex),stoichiometry N,[3],3
same,stoichiometry N,[4],3
AMC011 SOSIP.v9 (complex),stoichiometry N,[5],3
same,stoichiometry N,[6],3
AMC016 SOSIP.v9 (complex),stoichiometry N,[7],3
same,stoichiometry N,[8],3
TRO.11 SOSIP.v9 (complex),stoichiometry N,[9],3
same,stoichiometry N,[10],3
